System: MS2 coat protein
Experiment: apparent KD of MS2 coat protein; designed switch direction (-1 OFF switch, 1 ON switch): 1; higher = weaker reporter binding
In short: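 Stalled E. coli RNA polymerase transcribed designed RNA switches on Illumina chips, which were then titrated with SNAP-549-labelled MS2 coat protein, doubling from 0.7 or 1.5 nM to 3 µM. Steps lasted from 0.8–1.5 h at the lowest concentration to 10–20 min at the highest. The apparent KD is each design's median over clusters of curve-fitted normalised fluorescence.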

[1] = Eterna round: R95, input ligand: FMN 200 uM
[2] = Eterna round: R95, input ligand: microRNA oligo, concentration not stated
[3] = Eterna round: R95, input ligand: none
[4] = input ligand: microRNA oligo, concentration not stated

Sequence	apparent KD of MS2 coat protein [1] [nM]	apparent KD of MS2 coat protein [2] [nM]	apparent KD of MS2 coat protein [3] [nM]	apparent KD of MS2 coat protein (input ligand: FMN 200 uM) [nM]	apparent KD of MS2 coat protein [4] [nM]	apparent KD of MS2 coat protein (input ligand: none) [nM]
UACUAUCUAUCUCAGGAUAUCAUGUCAAAGACAUGAGGAUCACCCAUGUACCAGGAAACUGGUUAUGAGAAGGGAGAUAGAUAGU [Mat - Same State 2 - Mod - D40] (puzzle: Same State 2)	160	53.2	249			
UAGAAACAUGAGGAUCACCCAUGUGGGUUAAACACAGGAUAUCAUGCCACACGAUAGGUAUGAGAAGGGUGACCGU [Sodion] (puzzle: Same State 1)	234	79.5	53.3			
UAGAGAGGAAGCGAGGAUAUCGUGGGAGGAACAUGAGGAUCACCCAUGUGUGAUGUUGAGAGGGACGAGAAGGCGCGGGAAAGUA [JR_SS2_Sub079] (puzzle: Same State 2)	171	194	277			
UAGCGCUGUCGAGAGGAUAUGCGGUGAUGGACAUGAGGAUCACCCAUGUUAGCGAUAGCAUUACGGUAGAAGGCUCUACAGCUGC [salish99_ss2_r3_092] (puzzle: Same State 2)		23.2				
UAGCUCGUGUGAGGAUAUGCCGCCGUUUCGGCUGCAGAAGGUGCUACGUUACAUGAGGAUCACCCAUGUCUCUGUUGUUUCGUG [salish99_SSNG1_r04_957] (Eterna round: R96, puzzle: Same State NG 1)				18.9	19.6	21.8
UAGGCUGGUACAGGAUAUGCCGUAUUUUAGUCGGCAGAAGGGUGCUCACAUGAGGAUCACCCAUGUAUACAGCCAGAUCAUGUU [MOD JMF Solution 2] (Eterna round: R96, puzzle: Same State NG 1)				132	107	43.2
UAGUACAUGCUUUUUGCCCGUCUUAGAUAACAUGAGGAUCACCCAUGUAAGGUGAAAGUUAUAUAGUGGAGGAAGAU [JR_SHM208A_Sub055] (puzzle: Sensor for hsa-mir-208a)	107	360	107			
UAGUGCAUUAGAGGAUAUUCUUACGACACGAGUAAGACAUGAGGAUCUCCCAUGUUGUGGCAUGGGAAGAAGGCUGAUGUGCUA [Omei SS(NG)2 Bv8] (Eterna round: R96, puzzle: Same State NG 2)				52.5	6.84	155
UAGUUACUAUCUCAGGAUAUCAUGUCAAAGACAUGAGGAUCACCCAUGUACCAGGAAACUGGUUAUGAGAAGGGAGAUAGUAACU [Mat - Same State 2 - Mod - D55] (puzzle: Same State 2)	134	104	1070			
UAGUUUUAGCGAGGAUAUCGUAUGUUUAAUUUUUUAUAUUGUUUACAUGAGGAUCACCCAUGUUACGAGAAGGCGCAUGGGAUU [JR_SSNG2_Sub080] (Eterna round: R96, puzzle: Same State NG 2)					273	
UAUGAACAUGAGGAUCACCCAUGUGGUACGAUCACAGGAUAUCACCUCGGACGUGCGAUGUGAGAAGGGUGAUGGU [Same State 1 - Mod of Vinnie Anrelari v.1] (puzzle: Same State 1)		63.1				
UAUUUAAUCGUAGGAUAUAGAAUGAAAUUUGUACUAGAAGGACGUUACAUGAGGAUCACCCAUGUGGUAAGUGGGACAUAGAUU [JR_SSNG1_Sub035] (Eterna round: R96, puzzle: Same State NG 1)				235	105	121
UCCUCAGUUUCACAGGAUAUGCGCUGAGUCACAUGAGGAUCACCCAUGUAGACGGAAAAUGUCGGGCAGAAGGGUGAGGCAUAAA [Diretibe] (puzzle: Same State 2)	57.2	117	4570			
UCGGGCGUACUUGCUGACAUGAGGAUCACCCAUGUAAUUGGGAAGGAUAUGGUUCCGUUUCGGUUCCAGAAGGUCCUGGGUGCU [salish99_SSNG3_r04_312] (Eterna round: R96, puzzle: Same State NG 3)				819	331	443
UCGUUCAUCGUAGGAUAUCUAGGAUAUGAACGAGGAUCACCCGAGCAGCAUCAGCGCAUCAGAGGAGAGAAGGACGAUGAUGCG [pwkr ssNG2 2F5 2FMN.4] (Eterna round: R96, puzzle: Same State NG 2)				1080	37.2	172
UCGUUCAUCGUAGGAUAUCUAGGAUAUGAACGAGGAUCACCCGAGCAGCAUCAGCGCAUCAGAGGAGAGAAGGACGCUGAUGCG [pwkr ssNG2 2F5 2FMN.20] (Eterna round: R96, puzzle: Same State NG 2)				30	8.83	84.8

Sequence	apparent KD of MS2 coat protein [1] [nM]	apparent KD of MS2 coat protein [2] [nM]	apparent KD of MS2 coat protein [3] [nM]	apparent KD of MS2 coat protein (input ligand: FMN 200 uM) [nM]	apparent KD of MS2 coat protein [4] [nM]	apparent KD of MS2 coat protein (input ligand: none) [nM]
UCUGCAAUUAACGCCUACAUGAGGAUCACCCAUGUAUGUAGGCAGGAUAUCGUUUGCUUUGCAAACGAGAAGGGCUGUAGUAGC [salish99_SSNG3_R04_001] (Eterna round: R96, puzzle: Same State NG 3)				52.4	49.2	61.6
UCUUGGUUUUUGCUCGUUUUUUGUGUUGAACAUGAGGAUCACCCAUGUAUUGUACGAUCCAAUUUGAUAAUGGUCCG [JMF 61] (puzzle: Sensor for hsa-mir-208a)	44.2	34.4	48.7			
UCUUGGUUUUUGCUCGUUUUUUGUGUUGAACAUGAGGAUCACCCAUGUAUUGUACGGUCCAAUUUAGUAAUGGUCCG [JMF 26] (puzzle: Sensor for hsa-mir-208a)	25.4	13.2	23.6			
UCUUGGUUUUUGCUCGUUUUUUGUGUUGAACAUGAGGAUCACCCAUGUAUUGUACGGUCCAAUUUAGUGGUAAUCCG [JMF 66] (puzzle: Sensor for hsa-mir-208a)	45.1	29	48.7			
UCUUGGUUUUUGCUCGUUUUUUGUGUUGAACAUGAGGAUCACCCAUGUAUUGUACGGUCCAAUUUGAUAAUGGUCCG [JMF 27] (puzzle: Sensor for hsa-mir-208a)	25.1	13.9	25.6			
UCUUGGUUUUUGCUCGUUUUUUGUGUUGAACAUGAGGAUCACCCAUGUAUUGUACGGUCCAGUUUGGUAAUGGUCCA [JMF 8] (puzzle: Sensor for hsa-mir-208a)	31.2	20.5	35			
UCUUGGUUUUUGCUCGUUUUUUGUGUUGAACAUGAGGAUCACCCAUGUAUUGUACGGUCCGAUUUGAUGAUGGUCCA [JMF 42] (puzzle: Sensor for hsa-mir-208a)	31.4	22.2	35.1			
UGAACCGUCACAGGAUAUCAUGCGAAAAUUGCGUGAGAAGGGUGGAUGUUGUGCUCAAAGUUAUACAUGAGGAUCACCCAUGUU [SameState NG1 #45] (Eterna round: R96, puzzle: Same State NG 1)				133	188	285
UGAAUACAUGAGGAUCACCCAUGUCAACGUAGUCGAGGAUAUGGGCAGCCGUGAGGCGUACCAGAAGGCGAAGAGG [Mat - Same State 1 - Mod of JL - D4] (puzzle: Same State 1)	40.4	88.8	132			
UGAAUAGUGAUAGGAUAUACAUGAGGAAUCCUCGUAGAAGGAUCAUAACAUGAGGAUCACCCAUGUAGCGCUCGAAAGAGCGCA [Mat - Same State NG 1 - JL mod - D55] (Eterna round: R96, puzzle: Same State NG 1)				244	207	56.5
UGAAUAGUUACAGGAUAUCAUGCGAAAAUUGCGUGAGAAGGGUGGGUGUUGUGCGCUAAGUGCUACAUGAGGAUCACCCAUGUU [SameState NG1 #37] (Eterna round: R96, puzzle: Same State NG 1)				325	28.8	213
UGAAUAGUUACAGGAUAUGAGCCGAAAAUUGGGUCAGAAGGGUGGGUGUUUUGCGCUAUGUGCUACAUGAGGAUCACCCAUGUU [SameState NG1 #34] (Eterna round: R96, puzzle: Same State NG 1)				888	268	338
UGAAUGGUGAUAGGAUAUACAUGAGGAAUCCUCGUAGAAGGAUCACGACAUGAGGAUCACCCAUGUAGCCGUCCGUAGACGGCG [salish99_SSNG1_r04_001] (Eterna round: R96, puzzle: Same State NG 1)				302	38.9	238
UGAAUGGUGAUAGGAUAUACAUGAGGAAUCCUCGUAGAAGGAUCAUGACAUGAGGAUCACCCAUGUAGCCGUCCGUAGACGGCA [JL SSNG1 1.22] (Eterna round: R96, puzzle: Same State NG 1)				140	22.1	351
UGCCUGAGUCGAGGAUAUUAUGGAUCAAUUAAUACAUGAGGAUCACCCAUGUAAUUAAUUUAACAUGAGAAGGUGACUCAGGCU [SSNG2/10-B3] (Eterna round: R96, puzzle: Same State NG 2)					8.4	
UGGAUCUAGGCUUGCCUGGGUCCAUGUUGACAUGAGGAUCACCCAUGUGUAUUCUAUAAGCUUUUUGUUUGUCAACU (puzzle: Sensor for hsa-mir-208a)	62.5	23.3	130			
